Data from patent US20100037349A1 (University of California, published 2010).
Numbering of substitutions follows the chain as printed.

T1: Arabidopsis NPR1 protein (Arabidopsis, UniProt P93002 1-593, limits assumed)
T1 construct: In the plant experiments it is the endogenous NPR1; also called NIM1; SAI1
T1 sequence (looked up): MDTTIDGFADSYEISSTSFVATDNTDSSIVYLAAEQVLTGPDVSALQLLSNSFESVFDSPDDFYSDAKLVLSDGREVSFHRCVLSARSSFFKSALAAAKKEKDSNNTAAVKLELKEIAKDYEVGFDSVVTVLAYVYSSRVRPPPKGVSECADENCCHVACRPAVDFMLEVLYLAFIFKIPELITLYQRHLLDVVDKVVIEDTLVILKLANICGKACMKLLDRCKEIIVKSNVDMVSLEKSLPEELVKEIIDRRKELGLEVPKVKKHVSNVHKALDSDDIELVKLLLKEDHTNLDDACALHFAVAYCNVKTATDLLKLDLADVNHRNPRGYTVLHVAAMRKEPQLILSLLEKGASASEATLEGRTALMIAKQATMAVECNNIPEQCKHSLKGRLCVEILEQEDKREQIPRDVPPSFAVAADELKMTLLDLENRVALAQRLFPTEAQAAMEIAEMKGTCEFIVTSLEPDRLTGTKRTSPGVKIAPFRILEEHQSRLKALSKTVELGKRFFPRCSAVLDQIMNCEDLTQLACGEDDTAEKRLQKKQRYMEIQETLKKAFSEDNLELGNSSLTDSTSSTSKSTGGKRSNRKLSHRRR

B1: rice NRR (Negative Regulator of disease Resistance) protein, wild type (other)
chain: MDATTTDATTAKRKRPAASDIADDAPTTVDEVSDAEVEEFYAILRRMRDATRRLGARPPPPRAPAWRPSFSWEDFADAPPKQAPPPPQQPADHERVAENATPPRRPAPGLDLNVEPPSDAPATPRSARAPA
notes: also called wild type NRR
B2: NRR single point mutant E39K (other)
chain: B1 chain with E39K
notes: also called EK

Assays:
[1] = biological target: Arabidopsis NPR1 protein (Arabidopsis) (UniProt P93002); test: cell-based or functional assay
Arabidopsis NPR1 protein = biological target: T1, Arabidopsis NPR1 protein; test: interaction assay (yeast), summary of the examples

Molecule	GUS activity from the BG2-Gus reporter after 0.1 mM INA induction (transgenic Arabidopsis line NIAD-22, repeat assay) [1]	Pst DC3000 bacterial populations at day 4, wild type relative to the NIAD lines [1]	binding result (Arabidopsis NPR1 protein)
NIAD fusion protein (N-terminal first 52 amino acids of NRR fused to a VP16 activation domain) (from UniProt P06492 413-490)	2 fold over WT	4 to 5 fold	
B1			binds
B2			binds
